What all share (assay): ITC
The target in assay [1] is yeast Hsp90 M705V (His-tagged) (yeast) (UniProt P02829).
The target of assay [2] is yeast Hsp90 (wild type, His-tagged) (yeast) (UniProt P02829).
Assay [3] has as its target Tah1 (TPR-containing protein associated with Hsp90) (S. cerevisiae) (UniProt P25638).

Kd and stoichiometry N data for 7 substances are collected here from PMC2865030.

mouse CHIP (C-terminal of Hsp70-interacting protein), sequence (Q9WUD1 whole entry): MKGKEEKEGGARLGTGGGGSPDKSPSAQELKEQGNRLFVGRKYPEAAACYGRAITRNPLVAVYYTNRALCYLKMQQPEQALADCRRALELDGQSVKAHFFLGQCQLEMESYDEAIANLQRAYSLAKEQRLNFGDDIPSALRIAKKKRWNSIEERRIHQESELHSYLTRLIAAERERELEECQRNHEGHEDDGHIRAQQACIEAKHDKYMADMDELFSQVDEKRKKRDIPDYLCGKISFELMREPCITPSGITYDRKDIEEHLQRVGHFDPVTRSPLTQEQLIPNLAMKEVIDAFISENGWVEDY
Tah1 (TPR-containing protein associated with Hsp90) (S. cerevisiae), sequence (P25638 whole entry): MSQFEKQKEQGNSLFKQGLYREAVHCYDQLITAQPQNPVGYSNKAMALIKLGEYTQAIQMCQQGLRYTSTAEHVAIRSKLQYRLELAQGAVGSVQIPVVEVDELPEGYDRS
C-terminal domain of Sti1 (cSti1), His-tagged (domain or fragment), sequence (P15705 133-581): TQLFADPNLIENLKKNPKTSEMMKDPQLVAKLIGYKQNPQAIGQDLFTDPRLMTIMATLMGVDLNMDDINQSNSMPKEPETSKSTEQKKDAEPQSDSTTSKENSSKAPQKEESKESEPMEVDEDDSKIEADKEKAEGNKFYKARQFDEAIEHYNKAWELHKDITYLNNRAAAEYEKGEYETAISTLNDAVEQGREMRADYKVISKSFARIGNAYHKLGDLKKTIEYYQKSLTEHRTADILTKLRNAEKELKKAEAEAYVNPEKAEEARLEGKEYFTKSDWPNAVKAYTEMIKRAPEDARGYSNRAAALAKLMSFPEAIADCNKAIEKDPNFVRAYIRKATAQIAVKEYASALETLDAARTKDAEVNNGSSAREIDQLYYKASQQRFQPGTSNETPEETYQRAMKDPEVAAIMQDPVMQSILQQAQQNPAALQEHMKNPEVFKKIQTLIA

In the case of “mouse CHIP (C-terminal of Hsp70-interacting protein) (from UniProt Q9WUD1 1-304) (natural protein)”, the Kd in assay [1] is 6.7 µM. The stoichiometry N in assay [1] is 1.1; in assay [2] it was 1.2.
As to “… decapeptide (yeast Hsp90 C-terminal decapeptide, Met at -4 replaced by Ala)”, in assay [3], the Kd is 3.3 µM and the stoichiometry N is 0.89.
Regarding “… decapeptide (Ssa1 C-terminal decapeptide, Val at -4 replaced by Ala)”, in assay [3], the Kd stood at 14.8 µM and the stoichiometry N stood at 1.1.
For the substance “… decapeptide (yeast Hsp90 C-terminal decapeptide, Met at -4 replaced by Val)”, in assay [3], the Kd worked out at 9.8 µM and the stoichiometry N was determined as 1.1.
For “… decapeptide (yeast Hsp90 C-terminal decapeptide, TE replaced by Ala-Ala)” the same measures were 0.75 µM and 0.81.
As to “… decapeptide (Ssa1 C-terminal decapeptide, Val at -4 replaced by Met)”, in assay [3], the equilibrium dissociation constant (Kd) was found to be 4.2 µM and the stoichiometry N worked out at 0.98.
With “C-terminal domain of Sti1 (cSti1), His-tagged (domain or fragment)”, in assay [2], the stoichiometry N came out at 0.88.

For orientation: Kd means the free concentration of one partner at which half of the binding sites on the other are occupied at equilibrium, for simple one-to-one binding. Higher therefore signals a looser complex. One may read the stoichiometry N as the number of molecules, sites or subunits per partner or assembly.
